Data reported in paper PMC5953937.

Molecular target: lipin 1 (UniProt Q14693)
Assay: co-immunoprecipitation (presumed)
Conditions: reference: wild-type Tip60; sites S86

Substance: Tip60 (from UniProt Q92993) S86A-Tip60
- binding against the reference: weaker
